According to patent publication US20250270314A1 (TAVOTEK BIOTECH SUZHOU, published 2025):
Substitutions are numbered along the chain they refer to.

T1: recombinant human CDH17 (R&D systems) (human, UniProt Q12864 23-787)
T1 construct: Bought recombinant protein coated on the ELISA plate; also called human Cadherin-17
T1 sequence: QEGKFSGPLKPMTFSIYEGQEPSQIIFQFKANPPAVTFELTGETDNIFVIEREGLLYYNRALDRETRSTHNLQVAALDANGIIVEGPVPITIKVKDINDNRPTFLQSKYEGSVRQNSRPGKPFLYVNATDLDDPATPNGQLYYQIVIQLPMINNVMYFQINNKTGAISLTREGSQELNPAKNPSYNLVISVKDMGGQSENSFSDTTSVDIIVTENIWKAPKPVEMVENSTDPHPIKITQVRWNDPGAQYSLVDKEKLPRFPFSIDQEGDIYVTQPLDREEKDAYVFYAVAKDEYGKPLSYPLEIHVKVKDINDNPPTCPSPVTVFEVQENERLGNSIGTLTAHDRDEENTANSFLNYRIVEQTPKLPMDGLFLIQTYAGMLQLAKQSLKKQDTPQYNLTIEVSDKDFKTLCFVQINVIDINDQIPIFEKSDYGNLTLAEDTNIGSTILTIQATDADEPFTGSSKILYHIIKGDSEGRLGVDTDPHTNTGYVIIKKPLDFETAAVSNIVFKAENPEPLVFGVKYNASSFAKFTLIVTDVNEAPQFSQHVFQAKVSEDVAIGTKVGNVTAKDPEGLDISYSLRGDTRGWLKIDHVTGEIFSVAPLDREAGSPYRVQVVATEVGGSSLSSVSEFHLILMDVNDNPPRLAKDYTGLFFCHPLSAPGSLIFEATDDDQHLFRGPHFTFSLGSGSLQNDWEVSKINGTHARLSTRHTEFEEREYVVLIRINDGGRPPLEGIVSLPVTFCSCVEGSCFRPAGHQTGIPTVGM

T2: human CDH17 on AGS gastric cancer cells and AsPC-1 pancreatic cancer cells (human, UniProt Q12864 23-832)
T2 construct: Native CDH17 on the surface of cancer cell lines; also called CDH17 expressing AGS cells; CDH17 expressing AsPC-1 pancreatic cancer cells
T2 sequence: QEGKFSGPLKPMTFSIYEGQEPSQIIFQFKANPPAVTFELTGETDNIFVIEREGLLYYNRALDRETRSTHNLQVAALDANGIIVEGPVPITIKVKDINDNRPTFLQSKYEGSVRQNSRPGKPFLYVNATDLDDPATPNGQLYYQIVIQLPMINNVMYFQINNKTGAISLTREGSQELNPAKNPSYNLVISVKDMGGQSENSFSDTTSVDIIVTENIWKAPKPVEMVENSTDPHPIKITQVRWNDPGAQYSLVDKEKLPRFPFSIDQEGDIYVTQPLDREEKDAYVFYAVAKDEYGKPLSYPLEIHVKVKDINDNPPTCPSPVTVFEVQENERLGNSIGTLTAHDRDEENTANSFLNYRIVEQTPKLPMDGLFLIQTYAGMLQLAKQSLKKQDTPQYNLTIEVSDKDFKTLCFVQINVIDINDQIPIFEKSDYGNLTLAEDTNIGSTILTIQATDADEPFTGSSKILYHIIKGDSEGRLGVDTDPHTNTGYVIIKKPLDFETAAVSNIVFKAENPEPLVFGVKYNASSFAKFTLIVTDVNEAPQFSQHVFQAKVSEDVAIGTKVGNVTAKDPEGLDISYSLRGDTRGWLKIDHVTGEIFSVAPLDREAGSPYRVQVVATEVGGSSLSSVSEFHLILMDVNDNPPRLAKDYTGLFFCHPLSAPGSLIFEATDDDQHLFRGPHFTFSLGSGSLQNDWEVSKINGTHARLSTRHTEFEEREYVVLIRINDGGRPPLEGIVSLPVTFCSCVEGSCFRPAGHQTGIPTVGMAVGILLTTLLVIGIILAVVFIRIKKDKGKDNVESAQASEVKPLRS

B1: CDH17 v5 (antibody, V domains shown)
VH: QVQLVQSGAEVKKPGSSVKVSCKVSGYTFTDHTIHWMKQRPGQGLEWIGYIYPRDVITQYNEKFKGKVTLTADKSTSTAYMELSSLRSEDTAVYLCARWGYFYGSRSYYFDYWGQGTTVTVSS
VL: DIVMTQSQKFMSTTVGDRVNITCKASQNVGTAVAWYQQKPGQSPKLLIYSASNRYTGVPDRFTGSGSGTDFTLTITNMQSKDLADYFCQQYSSYPWTFGGGTKLEIK
notes: typical human IgG heavy and light chain bands on SDS-PAGE
B2: CDH17 v6 (antibody, V domains shown)
VH: QVQLQQSDAELVKPGASVKISCKVSGYTFTDHTIHWMKQRPEQGLEWIGYIYPRDVITQYNEKFKGKATLTADKSSSTAYMQLNSLTSEDSAVYLCARWGYFYGSRSYYFDYWGQGTTLTVSS
VL: B1 VL
notes: as for B1
B3: VHO v364 (VHH)
VHH: EVQLLESGGGLVQPGGSLRLSCAASGFTFSDYWMSWVRQAPGKGLEWVSNISGSGGSTYYADSVKGRFTISRDNSKNTLYLQMNSLRAEDTAVYYCAKTSDWLLHDADLHFDYWGQGTLVTVSS
notes: Variable-heavy-only (VHO) single domain; also called TS00364; CDH17-VHO364
B4: VHO v363 (VHH)
VHH: B3 VHH with D31T, G53Q, S54D, S100T, L104Q, H105D, D106K, A107V, L109E, H110A
notes: Variable-heavy-only (VHO) single domain; also called TS00363
B5: VHO v358 (VHH)
VHH: EVQLLESGGGLVQPGGSLRLSCAASGFTFSDYWMSWVRQAPGKGLEWVSNISGDGGSTYYADSVKGRFTISRDNSKNTLYLQMNSLRAEDTAVYYCAKTTDLLQGAFDYWGQGTLVTVSS
notes: Variable-heavy-only (VHO) single domain; also called TS00358
B6: VHO v366 (VHH)
VHH: EVQLLESGGGLVQPGGSLRLSCAASGFTFSDYWMSWVRQAPGKGLEWVSNINGDGGSTYYADSVKGRFTISRDNSKNTLYLQMNSLRAEDTAVYYCAKTSTFYKQDKFDYWGQGTLVTVSS
notes: Variable-heavy-only (VHO) single domain; also called TS00366

Target: T1, recombinant human CDH17 (R&D systems)
Assay: ELISA, plate coated with recombinant human CDH17
Protocol: (§1) ELISA-based binding assay was employed to evaluate the binding to CDH17 by anti-CDH17 antibodies. In this assay, 100 μL of […] recombinant human CDH17 (R&D systems) was coated on an ELISA plate. Increasing concentrations of masked and reference mAbs were applied on the plate and their binding to the recombinant human proteins were detected by HRP-conjugated anti-human secondary antibody. […] The expressed anti-CDH17 mAbs had potent binding to CDH17. The anti-CDH17 were tested for binding to AGS gastric cancer cells and AsPC-1 pancreatic cancer cells.

Binding result, binds:
B1
B2

Target: T1, recombinant human CDH17 (R&D systems)
Assay: ELISA, recombinant human CDH17
Protocol: as §1

Binding result, binds:
B3
B4
B5
B6

Target: T2, human CDH17 on AGS gastric cancer cells …
Assay: flow cytometry on AGS and AsPC-1 cells

Binding result, binds:
B3
B4
B5
B6
